Results on two molecules are retold here after patent US20190016816A1 (APTEVO RESEARCH AND DEVELOPMENT, published 2019).

In test [1] the target is human CD137 on cells (human, UniProt Q07011 24-255). As to the kind of experiment: cell-based or functional assay.
The target of test [2] is cynomolgus CD137 on cells (cynomolgus macaque, UniProt A9YYE7 24-254). As to the kind of experiment: cell-based or functional assay.
Test [3] concerns the target T1, FcγRIIIa (CD16a Val158) (UniProt P08637 17-254, limits assumed).
T1 construct: whole, on cells; allotype Val158 as printed
As to the kind of experiment: flow cytometry, CHO cells stably expressing CD16a Val158, fluorescent anti-human IgG secondary, MFI (mean). The source says: (§1) ALG.APV-210 contains mutations introduced to prevent interaction with Fcγ receptors (FcγR) that could lead to FcγR-mediated T-cell activation or ADCC, ADCP, CDC etc. Binding of ALG.APV-210 was therefore tested on CHO cell transfectants stably expressing the following FcγR: FcγRI (CD64), FcγRIIa (CD32a His131), FcγRIIb (CD32b), FcγRIIIa (CD16a Val158 and CD16a Phe158), and FcγRIIIb (CD16b). Untransfected CHO cells were used as negative control. A control human IgG1 molecule was used as a positive control. Different concentrations of ALG.APV-210 or control IgG1 were incubated with the FcγR-expressing cell lines, washed, and labeled with a secondary anti-human IgG reagent. Binding of ALG.APV-210 and the control IgG1 was detected by flow cytometry.
For orientation: In flow cytometry, cells or beads pass a laser one at a time.

The target in test [4] is T2, FcγRIIa (CD32a His131) (UniProt P12318 34-317, limits assumed).
T2 construct: whole, on cells; allotype His131 as printed
T2 sequence (looked up): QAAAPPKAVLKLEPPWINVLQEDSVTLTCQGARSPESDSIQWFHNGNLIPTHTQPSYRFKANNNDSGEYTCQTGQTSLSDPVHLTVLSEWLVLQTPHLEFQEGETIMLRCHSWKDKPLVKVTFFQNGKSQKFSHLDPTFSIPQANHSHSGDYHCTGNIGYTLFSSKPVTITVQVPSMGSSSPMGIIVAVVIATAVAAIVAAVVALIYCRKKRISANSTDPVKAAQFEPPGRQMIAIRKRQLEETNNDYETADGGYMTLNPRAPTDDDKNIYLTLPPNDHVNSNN
As to the kind of experiment: flow cytometry, CHO cells stably expressing CD32a His131, fluorescent anti-human IgG secondary, MFI (mean).
Excerpt: as §1

The target of test [5] is T3, human 5T4 on cells (human, UniProt Q13641 32-420).
T3 construct: also called TPBG; hu5T4
T3 sequence: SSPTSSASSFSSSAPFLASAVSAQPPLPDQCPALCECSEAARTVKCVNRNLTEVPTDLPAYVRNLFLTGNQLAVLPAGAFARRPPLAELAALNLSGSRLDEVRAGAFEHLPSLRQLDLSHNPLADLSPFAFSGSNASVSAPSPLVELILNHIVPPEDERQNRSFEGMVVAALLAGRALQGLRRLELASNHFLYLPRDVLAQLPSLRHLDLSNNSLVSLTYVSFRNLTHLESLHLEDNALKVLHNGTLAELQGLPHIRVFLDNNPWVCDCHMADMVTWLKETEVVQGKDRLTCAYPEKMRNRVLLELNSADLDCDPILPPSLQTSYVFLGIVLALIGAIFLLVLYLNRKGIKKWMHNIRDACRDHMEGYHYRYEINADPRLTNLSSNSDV
Nature of the test: flow cytometry, CHO/5T4 cells, PE goat anti-human Fc. The procedure: (§2) A 3-fold titration of ALG.APV-210 construct (ranging from 100 nM to 0.14 nM) was incubated with the human 5T4-expressing cell lines for 40 minutes in FACS buffer at 4° C., washed 3 times, and detected with PE-labeled, goat-anti-human Fc secondary antibody (Jackson ImmunoResearch). Binding of ALG.APV-210 was detected by flow cytometry. All samples were run in duplicates. Nonlinear regression analysis to determine EC₅₀ values was performed in GraphPad Prism 6® graphing and statistics software.

Test [6] concerns the target T3, human 5T4 on cells. Nature of the test: flow cytometry, TF-1 cells, PE goat anti-human Fc. As for the experimental part:
as §2

Test [7] concerns the target T3, human 5T4 on cells. As to the kind of experiment: flow cytometry, JEG cells, streptavidin-PE, normalized MFI of 2 pooled experiments. The procedure:
(§3) Prior to the FACS staining, all cell lines were characterized for their 5T4 expression levels using a receptor density kit (Quantum Simply Cellular, anti-human IgG, Bangs Laboratories, Inc). Adherent cell lines were cultured according to their supplier's instructions and were harvested from their cell culture flasks using Trypsin/EDTA, counted in R10 medium in a Burker chamber, and diluted in FACS buffer (PBS+0.5% BSA, 0.05% NaN₃) to a concentration of 4×10⁶ cells/mL. 50 μL (0.20×10⁶) of cell solution was added to a 96-well FACS staining plate (Falcon #351190). Cells were incubated for 20 min in 4° C. with 50 μL of the biotinylated ALG.APV-210 (2× final concentration). The antibodies were added in a serial dilution starting at 20 μg/mL titrating down in a 12 step ½ dilution down to 0.010 μg/mL. Following 2× washing with FACS buffer, cells were incubated for 30 min in 4° C. with 100 μL of a secondary antibody (streptavidin-PE, BD #554061, diluted 1/500). […] Cells were analysed for ALG.APV-210 binding using flow cytometry (FACSVerse) by gating on single cells. MFI values (secondary antibody only subtracted) from 1 out of 2 independent experiments, as well as normalized data and EC₅₀-values of pooled data from 2 experiments were determined and plotted using GraphPad Prism 7, non-linear regression log (agonist) vs. normalized response—variable slope.

The target of test [8] is T3, human 5T4 on cells. Nature of the test: flow cytometry, CT26 cells transfected with human 5T4 (low clone), biotinylated ALG.APV-210 + streptavidin-PE, 1 of 2 experiments. The procedure: as §3, with “μg/mL.” for “μg/mL. Following 2× washing with FACS buffer, cells were incubated for 30 min in 4° C. with 100 μL of a secondary antibody (streptavidin-PE, BD #554061, diluted 1/500).”
The binding (EC₅₀) of the biotinylated ALG.APV-210 to 5T4 when expressed on cells, either at endogenous levels on human tumor cells or on cells transfected to express 5T4 was assessed. […]

Test [9] addresses T3, human 5T4 on cells. Nature of the test: flow cytometry, SKOV-3 cells, streptavidin-PE, normalized MFI of 2 pooled experiments. As for the experimental part: as §3

Chain of human CD137 on cells (Q07011 24-255 limits assumed): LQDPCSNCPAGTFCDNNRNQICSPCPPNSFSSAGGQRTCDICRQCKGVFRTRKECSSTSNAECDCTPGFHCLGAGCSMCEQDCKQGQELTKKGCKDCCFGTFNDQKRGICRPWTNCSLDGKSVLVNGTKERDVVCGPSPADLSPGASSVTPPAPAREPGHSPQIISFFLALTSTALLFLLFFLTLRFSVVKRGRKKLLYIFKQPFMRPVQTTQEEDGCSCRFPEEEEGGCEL
Chain of cynomolgus CD137 on cells (A9YYE7 entry or part of it): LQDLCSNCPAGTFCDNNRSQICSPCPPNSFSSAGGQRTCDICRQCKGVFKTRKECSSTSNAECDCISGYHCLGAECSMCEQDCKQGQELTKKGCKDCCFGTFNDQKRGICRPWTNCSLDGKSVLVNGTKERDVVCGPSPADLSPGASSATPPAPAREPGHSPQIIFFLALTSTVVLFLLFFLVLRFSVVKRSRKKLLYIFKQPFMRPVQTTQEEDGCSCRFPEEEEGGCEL
T1 sequence (P08637 17-254 F176V limits assumed): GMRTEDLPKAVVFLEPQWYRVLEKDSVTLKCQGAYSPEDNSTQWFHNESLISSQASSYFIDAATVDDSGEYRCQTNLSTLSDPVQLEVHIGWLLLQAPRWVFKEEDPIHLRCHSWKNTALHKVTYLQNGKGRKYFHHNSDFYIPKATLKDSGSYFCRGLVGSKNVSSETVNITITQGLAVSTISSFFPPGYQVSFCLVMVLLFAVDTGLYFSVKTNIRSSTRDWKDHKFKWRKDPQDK

B1: ALG.APV-210 (bispecific antibody)
chain: EVQLLESGGGLVQPGGSLRLSCAASGFTFSHGSMYWVRQAPGKGLEWVSSISSGSGSTYYADSVKGRFTISHDNSKNTLYLQMNSLRAEDTAVYYCARSSYYGSYYSIDYWGQGTLVTVSSGGGGSGGGGSGGGGSGGGGSDIQMTQSPSSLSASVGDRVTITCRASQSISSYLNWYQQKPGKAPKLLIYAASSLQSGVPSRFSGSGSGTDFTLTISSLQPEDFATYYCQQYYDNLPTFGQGTKLEIKEPKSSDKTHTCPPCPAPEAAGAPSVFLFPPKPKDTLMISRTPEVTCVVVDVSHEDPEVKFNWYVDGVEVHNAKTKPREEQYNSTYRVVSVLTVLHQDWLNGKEYKCAVSNKALPAPIEKTISKAKGQPREPQVYTLPPSRDELTKNQVSLTCLVKGFYPSDIAVEWESNGQPENNYKTTPPVLDSDGSFFLYSKLTVDKSRWQQGNVFSCSVMHEALHNHYTQKSLSLSPGSGGGGSGGGGSGGGGSPSEVQLLESGGGLVQPGGSLRLSCAASGFTFSSYAMSWVRQAPGKCLEWVSAISGSGGSTYYADSVKGRFTISRDNSKNTLYLQMNSLRAEDTAVYYCARYYGGYYSAWMDYWGQGTLVTVSSGGGGSGGGGSGGGGSGGGGSDIQMTQSPSSLSASVGDRVTITCRASQSISSFLNWYQQKPGKAPKLLIYAASSLQSGVPSRFSGSGSGTDFTLTISSLQPEDSATYYCQQTYGYLHTFGCGTKLEIKR
notes: Optimized ADAPTIR scFv-Fc-scFv homodimer with stabilizing disulfide in the 1210 scFv; also called 5T4-CD137 bispecific antibody
With B1, in test [1], the “EC50 (nM), IFNγ release of human CD8 T cells on plate immobilized 5T4-Fc and anti-CD3” value stood at 0.2 nM. Also, the “EC50 (nM), IFNγ release of cynomolgus CD8 T cells on plate immobilized 5T4-Fc and anti-CD3” value in test [2] amounted to 0.4 nM. Besides, the binding result in test [3] and in test [4] was “no binding (tested: 1000 nM)” each time. Further, the EC50 (commonly the concentration needed to bring the measured effect to its halfway point) in test [5] was 10 nM; in test [6], 71 nM.

B2: biotinylated ALG.APV-210 (bispecific antibody)
chain: EVQLLESGGGLVQPGGSLRLSCAASGFTFSHGSMYWVRQAPGKGLEWVSSISSGSGSTYYADSVKGRFTISHDNSKNTLYLQMNSLRAEDTAVYYCARSSYYGSYYSIDYWGQGTLVTVSSGGGGSGGGGSGGGGSGGGGSDIQMTQSPSSLSASVGDRVTITCRASQSISSYLNWYQQKPGKAPKLLIYAASSLQSGVPSRFSGSGSGTDFTLTISSLQPEDFATYYCQQYYDNLPTFGQGTKLEIKEPKSSDKTHTCPPCPAPEAAGAPSVFLFPPKPKDTLMISRTPEVTCVVVDVSHEDPEVKFNWYVDGVEVHNAKTKPREEQYNSTYRVVSVLTVLHQDWLNGKEYKCAVSNKALPAPIEKTISKAKGQPREPQVYTLPPSRDELTKNQVSLTCLVKGFYPSDIAVEWESNGQPENNYKTTPPVLDSDGSFFLYSKLTVDKSRWQQGNVFSCSVMHEALHNHYTQKSLSLSPGSGGGGSGGGGSGGGGSPSEVQLLESGGGLVQPGGSLRLSCAASGFTFSSYAMSWVRQAPGKCLEWVSAISGSGGSTYYADSVKGRFTISRDNSKNTLYLQMNSLRAEDTAVYYCARYYGGYYSAWMDYWGQGTLVTVSSGGGGSGGGGSGGGGSGGGGSDIQMTQSPSSLSASVGDRVTITCRASQSISSFLNWYQQKPGKAPKLLIYAASSLQSGVPSRFSGSGSGTDFTLTISSLQPEDSATYYCQQTYGYLHTFGCGTKLEIKR
notes: also called ALG.APV-210 (biotinylated for FACS detection)
In the case of B2, the EC50 in test [7] came out at 8 nM; in [9], 15 nM. In [8], the EC50 (read off the curve) (as a rule, the concentration needed to bring the measured effect to its halfway point) is approximately 10 nM.
